What all share (assay): purified protein
Holding throughout (format): biochemical, Agrocybe pediades

Substrate in series [1]: COc1ccc(CO)cc1OC
The note with it: pH 4.0, 25 °C, 0.4 mM H2O2, fit with substrate inhibition.

Substrate in series [2]: COc1cccc(OC)c1O
Substrate in series [3]: Nc1c(N=Nc2ccc(S(=O)(=O)CCOS(=O)(=O)O)cc2)c(S(=O)(=O)O)cc2cc(S(=O)(=O)O)c(N=Nc3ccc(S(=O)(=O)CCOS(=O)(=O)O)cc3)c(O)c12
The note with it: Hill n = 2.11 ± 0.30, pH 3.0, 25 °C, 0.4 mM H2O2.

Substrate in series [4]: CCn1c(=NN=c2sc3cc(S(=O)(=O)O)ccc3n2CC)sc2cc(S(=O)(=O)O)ccc21
The mark [5] stands for this setting: pH 3.0, 25 °C, 0.4 mM H2O2, fit with substrate inhibition.
Where [6] appears, read: high-efficiency site of biphasic kinetics, Hill n = 1.62 ± 0.12, 100 mM sodium tartrate pH 3.0, 25 °C, 0.4 mM H2O2.
Where [7] appears, read: pH 8.0, 25 °C, 1 mM H2O2, Michaelis-Menten fit despite substrate/product inhibition, no activity at pH 3.
Where [8] appears, read: low-efficiency site (only site left), Hill n = 1.62 ± 0.28, strong substrate inhibition, pH 3.0, 25 °C, 1 mM H2O2.

Numbering of substitutions follows the chain as printed. Numbers in names are those of the source.

B1: ApeLiP (LiP of Agrocybe pediades) (Agrocybe pediades) (protein)
chain: AVTCPTGQTTANEACCVLFPVIDLLQEELFDGGECGEEAHAALRLAFHDAIGFSKNGGKGGGADGSILAFHQTETTYAANSGIEDIITAQLPIFQKTNLTAGDFVHLAAAIGTGNCPGSPQLAYSFGRPPPVAPAPDGTVPEPTDSVTDILARFSEAGFVTAEVIWLLASHSIAAASKIDTSAPRTPFDSTPALFDTQFYLETILNGTLLPGDGGAHTGEVLSPIAGEMRLQSDFAFAQDPRTACLWQEPINDQAFIQGKFFAAMKKLQVLGQTGLTDCSDVIPVPASLPGPITFPAGFSEADVISACTATPLPSLATIAGPKPTIPPVPL
As for B1, in the series “purified protein [1]”, the Km – broadly, the substrate concentration at which the rate is half of its maximum – was “(29.6 ± 4.6) × 10^3 µM”; the kcat (in general, the maximal rate divided by the concentration of active sites) amounted to 4.3 ± 0.3 s⁻¹; the kcat/Km (commonly the turnover number divided by the Michaelis constant) was found to be 150 ± 30 M⁻¹ s⁻¹. For the same protein, in “purified protein [2]” (setting [5]), the Km was determined as 37 ± 5.6 µM, the kcat amounted to 68.6 ± 2.8 s⁻¹ and the kcat/Km was 1.91e+06 ± 310000 M⁻¹ s⁻¹. Further, in “purified protein [3]”, the K0.5 was 14 ± 1.4 µM, the kcat was 21 ± 1.5 s⁻¹ and the kcat/Km was determined as 1.54e+06 ± 115000 M⁻¹ s⁻¹. Moreover, in “purified protein [4]” (setting [6]), the K0.5 is 8.1 ± 0.6 µM, the kcat stood at 42 ± 1.8 s⁻¹ and the kcat/Km turned out to be 5130 ± 460 s⁻¹ mM⁻¹.

B2: ApeLiP (LiP of Agrocybe pediades) (Agrocybe pediades; W166A) (protein)
chain: B1 chain with W166A
Consider B2, for which, in the series “purified protein [2]” (setting [7]), the Km is listed as 49 ± 8.2 µM, the kcat was 6.1 ± 0.27 s⁻¹ and the kcat/Km is 125000 ± 22000 M⁻¹ s⁻¹. Also, in “purified protein [4]” (setting [8]), the K0.5 is listed as 1150 ± 190 µM, the kcat is 117 ± 10 ^c s^-1 and the kcat/Km was 102 ± 19 ^c s^-1·mM^-1.

Source of the values: paper PMC8472802, “Agaricales Mushroom Lignin Peroxidase: From Structure–Function to Degradative Capabilities” (Antioxidants, 2021).
